According to patent publication US20260234242A1 (HAINAN SIMCERE ZAIMING PHARMACEUTICAL, published 2026):
Values belong to the binder of their own block, whether it stands above or below them.

How the values were obtained:
[1] = target: T1, human CDH6 with EC5 removed, on HEK293T cells (HEK293T-hCDH6-EC5 deletion) (human, UniProt P55285 54-790); experiment: FACS, HEK293T-hCDH6-EC5 deletion cells
T1 construct: Signal peptide not removed here
T1 sequence: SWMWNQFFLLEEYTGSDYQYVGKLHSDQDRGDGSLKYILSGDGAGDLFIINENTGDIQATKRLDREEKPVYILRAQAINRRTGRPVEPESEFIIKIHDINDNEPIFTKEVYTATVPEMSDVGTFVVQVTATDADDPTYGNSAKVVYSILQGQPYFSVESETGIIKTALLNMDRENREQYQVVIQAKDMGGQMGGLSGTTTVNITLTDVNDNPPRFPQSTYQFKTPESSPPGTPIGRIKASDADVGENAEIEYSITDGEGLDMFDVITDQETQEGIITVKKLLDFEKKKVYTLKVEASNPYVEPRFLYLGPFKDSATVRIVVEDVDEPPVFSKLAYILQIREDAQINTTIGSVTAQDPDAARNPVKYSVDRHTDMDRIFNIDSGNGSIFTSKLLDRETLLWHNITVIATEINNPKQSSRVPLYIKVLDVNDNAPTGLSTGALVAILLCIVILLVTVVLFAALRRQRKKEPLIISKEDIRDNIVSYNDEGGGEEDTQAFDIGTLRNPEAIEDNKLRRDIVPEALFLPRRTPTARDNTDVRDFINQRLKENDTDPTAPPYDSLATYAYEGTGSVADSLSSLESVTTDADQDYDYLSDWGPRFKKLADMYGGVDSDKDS
From the text: To confirm the binding epitope of the CDH6 antibody, the sequences after removal of these 5 regions were constructed into pcDNA3.1 vectors (purchased from Youbio, Cat. No. VT1001), and transfected into HEK293T cells (purchased from Cell Bank of Chinese Academy of Sciences, Cat. No. SCSP-502) to obtain 5 CDH6 truncated cell lines: HEK293T-hCDH6-EC1 deletion, HEK293T-hCDH6-EC2 deletion, HEK293T-hCDH6-EC3 deletion, HEK293T-hCDH6-EC4 deletion, and HEK293T-hCDH6-EC5 deletion.
The binding activity of the CDH6 chimeric antibodies to these 5 cell lines was assayed by FACS.

[2] = target: T2, human CDH6 with EC1 removed, on HEK293T cells (HEK293T-hCDH6-EC1 deletion) (human, UniProt P55285 160-790); experiment: FACS, HEK293T-hCDH6-EC1 deletion cells
T2 construct: Signal peptide not removed here
T2 sequence: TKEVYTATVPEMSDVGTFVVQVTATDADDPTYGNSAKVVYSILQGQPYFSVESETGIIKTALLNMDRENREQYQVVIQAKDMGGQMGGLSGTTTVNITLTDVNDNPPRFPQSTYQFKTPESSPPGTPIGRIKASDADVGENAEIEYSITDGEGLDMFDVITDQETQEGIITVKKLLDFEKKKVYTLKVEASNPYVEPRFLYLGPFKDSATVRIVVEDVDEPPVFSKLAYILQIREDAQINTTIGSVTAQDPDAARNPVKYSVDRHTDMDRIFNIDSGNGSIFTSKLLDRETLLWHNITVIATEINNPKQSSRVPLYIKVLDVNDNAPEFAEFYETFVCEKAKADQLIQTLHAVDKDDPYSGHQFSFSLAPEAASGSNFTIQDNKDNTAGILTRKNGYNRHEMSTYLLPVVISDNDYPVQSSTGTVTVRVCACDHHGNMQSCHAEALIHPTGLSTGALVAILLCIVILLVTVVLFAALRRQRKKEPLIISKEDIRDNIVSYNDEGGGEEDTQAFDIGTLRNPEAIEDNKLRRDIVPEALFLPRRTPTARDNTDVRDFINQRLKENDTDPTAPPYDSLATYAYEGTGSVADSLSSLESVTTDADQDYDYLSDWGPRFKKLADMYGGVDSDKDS

[3] = target: T3, human CDH6 on tumor cells (OVCAR3 cells, PA-1 cells) (human, UniProt P55285 54-790); experiment: FACS, OVCAR3 cells, 4° C. arm of endocytosis assay
T3 sequence: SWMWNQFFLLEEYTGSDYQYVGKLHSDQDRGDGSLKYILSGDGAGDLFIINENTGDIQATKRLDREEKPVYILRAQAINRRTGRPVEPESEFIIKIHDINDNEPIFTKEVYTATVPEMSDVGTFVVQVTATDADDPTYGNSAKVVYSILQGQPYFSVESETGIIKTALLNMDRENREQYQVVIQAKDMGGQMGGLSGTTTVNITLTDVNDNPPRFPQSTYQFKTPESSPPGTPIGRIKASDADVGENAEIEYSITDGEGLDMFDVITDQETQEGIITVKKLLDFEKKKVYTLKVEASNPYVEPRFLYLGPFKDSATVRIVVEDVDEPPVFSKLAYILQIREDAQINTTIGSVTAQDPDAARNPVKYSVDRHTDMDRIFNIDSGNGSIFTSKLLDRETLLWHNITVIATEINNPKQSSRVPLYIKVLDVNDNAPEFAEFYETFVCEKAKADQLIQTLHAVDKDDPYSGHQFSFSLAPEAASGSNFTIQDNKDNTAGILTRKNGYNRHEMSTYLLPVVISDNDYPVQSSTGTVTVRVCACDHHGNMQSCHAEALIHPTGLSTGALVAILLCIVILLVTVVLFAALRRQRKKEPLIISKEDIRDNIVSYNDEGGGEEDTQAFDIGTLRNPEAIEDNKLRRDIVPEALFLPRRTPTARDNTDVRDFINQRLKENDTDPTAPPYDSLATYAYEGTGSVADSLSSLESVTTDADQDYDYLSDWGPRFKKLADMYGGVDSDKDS
Description: OVCAR3 cells were cultured until a confluence of 90% was reached, the medium was removed by pipetting, the cells were washed once with PBS, and then treated with an enzyme-free cell dissociation solution (Versene, purchased from Gibco, Cat. No. 15040-066) and the cells were collected. The cells were washed once with PBS, counted, resuspended to 2×10⁶ cells/mL in an FACS buffer (PBS+2% FBS), and then added to two 96-well plates at 50 μL/well. The chimeric antibodies were diluted with FACS buffer (PBS+2% FBS) to 10 μg/mL and separately added to the two 96-well plates at 50 μL/well, and the plates were incubated at 4° C. for 1 h. After the cells were washed 3 times with PBS, the cells were resuspended in an FACS buffer. One 96-well plate was incubated at 4° C. for 1 h, and the other 96-well plate was incubated at 37° C. for 1 h. […] After the plates were centrifuged and washed 2 times with PBS, the cells were resuspended in an FACS buffer. The mean fluorescence intensity (MFI) was measured using FACS Canton II (BD). The chimeric antibodies tested all had good endocytic activity.
Some of the antibodies were selected for the endocytic activity assay, and the method for assaying the endocytic activity of the humanized antibodies in OVCAR3 cells was the same as that in 2.4. The humanized antibodies tested all had good endocytic activity.

B1: CHI-CDH6-12 (antibody, human IgG1, kappa, V domains shown)
VH: EVNLVESGGGLVQPGDSLTLSCSASGFTFTDYYMSWVRQFPGKALEWLALIRNKANSYTTEYSASVKGRFTISRDNSQSILYLQMNALRAEDSATYYCARDSYYSHDGFAYWGQGTLVTVSA
VL: DIVLTQSPASLAVSLGQRATISCRASKSVSTSSYTYMHWYQQKPGQPPKLLIKFASYLESGVPARFSGSGSGTDFTLNIHPVEEEDAATYYCQHSREFPFTFGTGTKLEIKR
notes: also called CH1-CDH6-12; chimeric antibody of murine CDH6-12
Max MFI [1]: 4490 MFI

B5: CHI-CDH6-14 (antibody, human IgG1, kappa, V domains shown)
VH: QIQLQQSGPELVKPGTSVKISCKASGYTFTDNYINWVRQRPGQGLEWIGWIYPGTGNSYYNEKFKGKATLTVDTSSSTAYMQFSSLTSEDSAVYLCASSYGDSFDYWGQGTTLTVSS
VL: DIQMTQTTSSLSASLGNRVTISCRASQDIRNYLNWYQQKPDGTFKLLISYTSRLHSGVPSRFSGSGSGTDYSLTVSNLEPEDIATYYCQQYSQLPWTFGGGSRLEIKR
notes: also called CHI-hCDH6-14; CH1-CDH6-14
Max MFI [1]: 4040 MFI

B6: CHI-CDH6-3 (antibody, human IgG1, kappa, V domains shown)
VH: QVQLQQPGAELVKPGASVKLSCKASGYTFTSYWIHWVKQRPGQGLEWIGEINPSNGVTNCNENFKSKATLTVDKSSSTAYMQLSSLTSEDSAVYYCTIPNLLWWYFDVWGAGTTVTVSS
VL: DIQMTQSPASLSVSVGETVTITCRASENIYSNLAWYQQKQGKSPQLLVYEATNLADGVPSRFSGSGSGTQYSLKINSLQSEDFGSYYCQHFWGTLWTFGGGTKLEIKR
notes: also called CH1-CDH6-3; chimeric antibody of murine CDH6-3
Max MFI [1]: 5610 MFI

B7: hCDH6-6-H2L2 (antibody, V domains shown)
VH: EVQLVQSGAEVKKPGASVKVSCKASGYTFTDYYMAWVRQAPGQGLEWMGYIFPNSGGTDYSQKFKGRVTLTVDKSTSTVYMELSSLRSEDTAVYYCARELGADYGDYYAMDHWGQGTTVTVSS
VL: DIQMTQSPSSLSASVGDRVTITCRASENIDSYLAWYQQKPGKSPKLLVYSATLLADGVPSRFSGSGSGTDYTLTISSLQPEDFATYYCQHYYRTPPTFGQGTKLEIK
notes: Humanized
MFI_4° C. [3]: 20500 MFI

B8: CHI-CDH6-4 (antibody, human IgG1, kappa, V domains shown)
VH: QVQLQQSGPELVKPGASVKISCKASGYAFSNFWMNWVKQRPGKGLEWIGWIYPGDGDTNYNGKFKDKATLTADKSSSTAYIQLSSLTSEDSAVYFCARLYDAWGFFDYWGQGTTLTVSS
VL: QIVLTQSPAIMSASPGQKVTITCSASSSVNYMHWYQQKLGSSPKLWIYDKSKLAPGVPARFSGSGSGTSYSLTISSMEAEDAASYFCHQWSSYPPMTFGGGTKLEIKR
notes: also called CH1-CDH6-4; chimeric antibody of murine CDH6-4
Max MFI [1]: 6540 MFI

B9: hCDH6-1-H2L3 (antibody, V domains shown)
VH: EVQLVQSGAEVKKPGSSVKVSCKASGYTFTNYWMHWVRQAPGQGLEWMGDIDPSHSETHYTQKFKDRVTITVDKSTSTAYMELSSLRSEDTAVYYCARGDLGRFDYWGQGTTVTVSS
VL: DIQMTQSPSSLSASVGDRVTITCRASESVSIHGTHLMHWYQQKPGKPPKLLIYAASNLESGVPSRFSGSGSETDFTFTISSLQPEDIATYYCQQSFEDPWTFGGGTKVEIK
notes: Humanized
MFI_4° C. [3]: 20200 MFI

B11: DS-H01L02 (antibody, human IgG1, kappa, V domains shown)
VH: EVQLVQSGAEVKKPGASVKVSCKASGYTFTRNFMHWVRQAPGQGLEWMGWIYPGDGETEYAQKFQGRVTITADTSTSTAYMELSSLRSEDTAVYYCARGVYGGFAGGYFDFWGQGTLVTVSS
VL: DIQMTQSPSSLSASVGDRVTITCKASQNIYKNLAWYQQKPGKAPKLLIYDANTLQTGVPSRFSGSGSGSDFTLTISSLQPEDFATYFCQQYYSGWAFGQGTKVEIKR
notes: Positive control, variable regions from WO2018212136A1; also called positive control anti-human CDH6 antibody
Max MFI [1]: 1530 MFI
MFI_4° C. [3]: 11400 MFI

More lines, main results first:

binding result [2]: no binding
Max MFI [1]: 14300 MFI
B2: CHI-CDH6-1 (antibody, human IgG1, kappa, V domains shown)
VH: QVQLQQPGAELVRPGSSVKLSCKASGYTFTNYWMHWVKQRPIEGLEWIGDIDPSHSETHYTQKFKDKATLTVDKSSSTAYMQLSSLTSEDSAVYYCARGDLGRFDYWGQGTTLTVSS
VL: DIVLTQSPASLAVSLGQRATISCRASESVSIHGTHLMHWYQQKSGQPPKLLIYAASNLESGVPARFSGSGSETDFTFNIHPVEEEDAATYFCQQSFEDPWTFGGGTKLEIKR
notes: also called CHI-hCDH6-1; CH1-CDH6-1

binding result [2]: no binding
Max MFI [1]: 4240 MFI
B3: CHI-CDH6-5 (antibody, human IgG1, kappa, V domains shown)
VH: QVQLQQSGAELVRPGTSVKMSCKAAEYTFTNYWIGWVKQRPGHGLEWIGDLYPGGDHANYNEKFEGKATLTADTSSSTAYMQLSSLTSEDSAIYYCARGMLTTGFDSWGQGTTLTVSS
VL: DIVMSQSPSSLAVSAGEKVTMSCKSSQSLFNSRTRKNYLAWYQQKPGQSPKLLIYWASTRESGVPDRFTGSGSGTDFTLTISSVQAEDLAVYYCKQSYYLRTFGGGTKLEIKR
notes: also called CH1-CDH6-5; chimeric antibody of murine CDH6-5

MFI_4° C. [3]: 13600 MFI
B4: NOV0712 (antibody, human IgG1, kappa, V domains shown)
VH: QVQLLESGGGLVQPGGSLRLSCAASGFTFSSHGMHWVRQAPGKGLEWVSVISGSGSNTGYADSVKGRFTISRDNSKNTLYLQMNSLRAEDTAVYYCARQWGSYAFDSWGQGTLVTVSS
VL: DIQMTQSPSSLSASVGDRVTITCRASQSISSYLNWYQQKPGKAPKLLIYAVSTLQSGVPSRFSGSGSGTDFTLTISSLQPEDFATYYCQQSGTFPPTTFGQGTKVEIKR
notes: as for B11
binding result [1]: no binding (tested: MFI ~1.5 times that of hIgG1 (81))

binding result [2]: no binding
Max MFI [1]: 1020 MFI
B10: CHI-CDH6-7 (antibody, human IgG1, kappa, V domains shown)
VH: EVKLVESGGGLVKPGGSLKVSCAASGFTFSDHGMAWVRQAPGKGPEWVAFISNLAYSIYYADTVTGRFTISRENAKNTLYLEMSSLRSEDTAMYYCARVYVKWYFDVWGAGTTVTVSS
VL: DIQMTQSPASLSASVGETVTITCRASENIDSYLAWYQQKQGKSPQLLVFAATLLADGVPSRFSGSGSGTQYSLKINSLQSEDVARYYCQHYYSTPLTFGAGTKLELKR
notes: also called CH1-CDH6-7; chimeric antibody of murine CDH6-7
